Among the data in PMC12317118 are average fluorescence intensity (BiFC) values, retold here.

The assay addresses YFPN-hAQP4 (human aquaporin 4 fused N-terminally to the YFPN fragment) (human) (UniProt P55087). Kind of assay: split reporter (BiFC, NanoBiT); YFPN-hAQP and YFPC-CaM co-expressed in S. cerevisiae; living cells at OD600 0.5 read by flow cytometry (FACSMelody, excitation 488 nm, FITC channel 527/32 nm); fluorescence frequency and intensity of gated cells; three transformations, ten replicates each.
Chain of UniProt P55087 (P55087 whole entry, the tested form may be a part): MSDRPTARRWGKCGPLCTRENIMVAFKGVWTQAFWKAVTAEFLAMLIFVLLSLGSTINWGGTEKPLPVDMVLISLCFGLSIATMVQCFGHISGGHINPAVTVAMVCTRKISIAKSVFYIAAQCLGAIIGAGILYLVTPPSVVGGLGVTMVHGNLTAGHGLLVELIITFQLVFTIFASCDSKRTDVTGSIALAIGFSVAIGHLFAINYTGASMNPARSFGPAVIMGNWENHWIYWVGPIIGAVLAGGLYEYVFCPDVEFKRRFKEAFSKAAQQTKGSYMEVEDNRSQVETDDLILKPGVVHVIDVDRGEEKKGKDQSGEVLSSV

Substance “YFPC-CaM (calmodulin fused N-terminally to the YFPC fragment) (from UniProt P0DP23 1-149) (natural protein)” came in with an average fluorescence intensity (BiFC) of 1700.
